According to US20020198363A1:

Target: chimera protein of europium (Eu) labeled human glycoprotein Ib α-chain and a mouse IgG2a Fc region (human; mouse) (UniProt P07359)
UniProt P07359, sequence (P07359 17-335 limits assumed, change not shown): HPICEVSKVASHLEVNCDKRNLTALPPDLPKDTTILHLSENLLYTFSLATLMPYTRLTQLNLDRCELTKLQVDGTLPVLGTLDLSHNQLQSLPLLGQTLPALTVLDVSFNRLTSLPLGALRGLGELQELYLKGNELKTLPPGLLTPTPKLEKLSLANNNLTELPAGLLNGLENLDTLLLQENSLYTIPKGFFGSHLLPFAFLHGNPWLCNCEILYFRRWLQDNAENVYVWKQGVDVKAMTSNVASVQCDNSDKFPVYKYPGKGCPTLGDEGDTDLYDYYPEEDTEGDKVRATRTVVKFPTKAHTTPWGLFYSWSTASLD

| Substance | IC50 |
| --- | --- |
| AS1051-PEG20000 (from UniProt P81508 1-126) | 0.0903 µg/mL |
| AS1051-PEG5000 (from UniProt P81508 1-126) | 0.0981 µg/mL |
